According to article doi:10.1101/2020.09.13.295485:

Target: His-GB1-tagged C-domain of CRT_(Del52) (human) (UniProt P27797)
Assay: non-reducing SDS-PAGE with immunoblot

With “His-GB1-tagged C-domain of CRT_(Del52) (from UniProt P27797 357-366) (domain or fragment)” the stoichiometry N was 2.
